Here are results for 4 molecules from patent publication US20130143227A1 (University of Texas, published 2013).

B1: recombinant human RSPO3 (ligand)
chain: QNASRGRRQRRMHPNVSQGCQGGCATCSDYNGCLSCKPRLFFALERIGMKQIGVCLSSCPSGYYGTRYPDINKCTKCKADCDTCFNKNFCTKCKSGFYLHLGKCLDNCPEGLEANNHTMECVSIVHCEVSEWNPWSPCTKKGKTCGFKRGTETRVREIIQHPSAKGNLCPPTNETRKCTVQRKKCQKGERGKKGRERKRKKPNKGESKEAIPDSKSLESSKEIPEQRENKQQQKKRKVQDKQKSVSVSTVH
notes: Bought from R&D Systems; also called R-spondin 3
B2: recombinant human RSPO2 (ligand, UniProt Q6UXX9 22-243, looked up)
chain: QGNRWRRSKRASYVSNPICKGCLSCSKDNGCSRCQQKLFFFLRREGMRQYGECLHSCPSGYYGHRAPDMNRCARCRIENCDSCFSKDFCTKCKVGFYLHRGRCFDECPDGFAPLEETMECVEGCEVGHWSEWGTCSRNNRTCGFKWGLETRTRQIVKKPVKDTILCPTIAESRRCKMTMRHCPGGKRTPKAKEKRNKKKKRKLIERAQEQHSVFLATDRANQ
notes: Bought from R&D Systems; also called R-spondin 2
B3: recombinant human RSPO4 (ligand)
chain: LNRRKKQVGTGLGGNCTGCIICSEENGCSTCQQRLFLFIRREGIRQYGKCLHDCPPGYFGIRGQEVNRCKKCGATCESCFSQDFCIRCKRQFYLYKGKCLPTCPPGTLAHQNTRECQGECELGPWGGWSPCTHNGKTCGSAWGLESRVREAGRAGHEEAATCQVLSESRKCPIQRPCPGERSPGQKKGRKDRRPRKDRKLDRRLDVRPRQPGLQP
notes: Bought from R&D Systems; also called R-spondin 4
B4: recombinant human RSPO1 (ligand, UniProt Q2MKA7 21-263, looked up)
chain: SRGIKGKRQRRISAEGSQACAKGCELCSEVNGCLKCSPKLFILLERNDIRQVGVCLPSCPPGYFDARNPDMNKCIKCKIEHCEACFSHNFCTKCKEGLYLHKGRCYPACPEGSSAANGTMECSSPAQCEMSEWSPWGPCSKKQQLCGFRRGSEERTRRVLHAPVGDHAACSDTKETRRCTVRRVPCPEGQKRRKGGQGRRENANRNLARKESKEAGAGSRRRKGQQQQQQQGTVGPLTSAGPA
notes: Bought from R&D Systems; also called R-spondin 1

One assay addresses T1, Myc-LGR4 (mouse LGR4, predicted mature form aa23-951, N-terminal Myc tag), expressed on HEK293 cells (mouse, UniProt A2ARI4 23-951).
T1 construct: range 23-951
T1 sequence: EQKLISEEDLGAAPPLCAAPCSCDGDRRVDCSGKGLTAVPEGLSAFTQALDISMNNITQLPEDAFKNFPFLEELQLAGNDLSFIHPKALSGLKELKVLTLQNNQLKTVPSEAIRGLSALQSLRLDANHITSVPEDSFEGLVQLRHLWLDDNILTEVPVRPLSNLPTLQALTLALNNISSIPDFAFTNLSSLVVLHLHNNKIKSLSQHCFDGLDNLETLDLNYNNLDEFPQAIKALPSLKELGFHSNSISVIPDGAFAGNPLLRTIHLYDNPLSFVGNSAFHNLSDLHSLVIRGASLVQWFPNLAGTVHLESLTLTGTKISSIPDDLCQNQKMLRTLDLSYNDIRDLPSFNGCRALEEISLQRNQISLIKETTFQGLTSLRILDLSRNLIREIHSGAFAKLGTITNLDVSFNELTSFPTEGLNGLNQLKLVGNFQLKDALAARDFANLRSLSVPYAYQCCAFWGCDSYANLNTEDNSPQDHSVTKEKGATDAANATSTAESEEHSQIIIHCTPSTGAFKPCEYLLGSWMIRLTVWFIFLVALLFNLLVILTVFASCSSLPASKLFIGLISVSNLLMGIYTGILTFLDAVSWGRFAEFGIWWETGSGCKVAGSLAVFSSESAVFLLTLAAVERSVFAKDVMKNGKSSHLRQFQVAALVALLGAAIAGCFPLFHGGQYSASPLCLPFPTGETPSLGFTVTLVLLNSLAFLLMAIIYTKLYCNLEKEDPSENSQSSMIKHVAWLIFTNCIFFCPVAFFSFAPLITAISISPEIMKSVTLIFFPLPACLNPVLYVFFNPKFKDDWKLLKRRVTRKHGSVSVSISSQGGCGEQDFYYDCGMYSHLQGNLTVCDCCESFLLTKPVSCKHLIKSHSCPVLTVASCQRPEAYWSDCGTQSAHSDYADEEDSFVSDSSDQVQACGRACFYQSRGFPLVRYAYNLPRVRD
Kind of assay: whole-cell fluorescence competition binding, displacement of mRSPO1-Fc (~5 nM) from HEK293 cells expressing Myc-LGR4. The protocol:
(§1) A fluorescence-based whole-cell competition binding assay was developed to determine whether purified, recombinant RSP01-4 could compete with mRSPO1-Fc for binding to LGR4-6. HEK293 cells stably expressing Myc-LGR4, Myc-LGR5, or FLAG-LGR6 were seeded into poly-D-lysine-coated 96-well black/clear bottom plates (Becton Dickinson) at ˜60,000 cells/well. After overnight culturing, the plates were chilled on ice for 5 min, media were removed from each well, and the cells were washed twice with cold PBS. The recombinant RSPOs under investigation were diluted in 3-fold serial dilutions in cold OPTI-MEM®+0.5% BSA and added onto the cells at 50 μl/well, followed immediately by the addition of equal volume of mRSPO1-Fc diluted by 1:100 in the same buffer. The cells were the incubated for 3.5 hrs at 4° C. with gentle agitation, followed by three quick washes with cold PBS. The cells were then fixed in 4% paraformaldehyde/PBS for 15 min at room temperature and washed 3× with PBS. The cells were further incubated with Alexa Fluor® 647-labeled goat anti-mouse IgG (H+L) (Invitrogen, diluted by 1:200) in OPTI-MEM®+0.5% BSA for 1 hr at room temperature. The cells were washed thrice with PBS and fluorescence intensity was measured using a Tecan M1000 plate reader with excitation at 630 nm and emission at 670 nm. All experiments were performed at least twice with quadruplicate replicates in each experiment. HEK293 cells stably expressing Myc-LGR4 (shown in FIG. 4B), Myc-LGR5 (shown in FIG. 4C), or FLAG-LGR6 (shown in FIG. 4D) were incubated with mRSPO1Fc at ˜5 nM plus serial dilutions of purified recombinant RSPO1-4 for 3-4 hrs at 4° C. Binding of mRSPO1-Fc was detected with Alexa Fluor® 647-labeled anti-mouse IgG. Maximum specific binding is defined by the difference between the data of with and without mRSPO1-Fc which is approximately 50% of total binding in general. All error bars are S.E.M. (n=4). […] As shown in FIGS. 4B-D, RSPO1-4 were able to completely displace the binding of mRSPO1-Fc to LGR4-6 with IC50's in the nM range, the one exception was the μM IC50's for RSPO3 (SEQ ID NO:46; SEQ ID NO:47) and RSPO4 (SEQ ID NO:48; SEQ ID NO:49) binding to LGR4.
Broadly, the IC50 is the midpoint of a concentration-inhibition curve. With B1, the IC50 is 126 nM.
As to B2, the IC50 was 2.3 nM.
Take B3: the IC50 was 228 nM.
For the molecule B4, the IC50 was 25 nM.

The target of the next assay is T2, FLAG-LGR6 (human LGR6, predicted mature form aa25-967, N-terminal FLAG tag), expressed on HEK293 cells (human, UniProt Q9HBX8 26-967).
T2 construct: Residues 25-967 are counted on NP-001017403
T2 sequence: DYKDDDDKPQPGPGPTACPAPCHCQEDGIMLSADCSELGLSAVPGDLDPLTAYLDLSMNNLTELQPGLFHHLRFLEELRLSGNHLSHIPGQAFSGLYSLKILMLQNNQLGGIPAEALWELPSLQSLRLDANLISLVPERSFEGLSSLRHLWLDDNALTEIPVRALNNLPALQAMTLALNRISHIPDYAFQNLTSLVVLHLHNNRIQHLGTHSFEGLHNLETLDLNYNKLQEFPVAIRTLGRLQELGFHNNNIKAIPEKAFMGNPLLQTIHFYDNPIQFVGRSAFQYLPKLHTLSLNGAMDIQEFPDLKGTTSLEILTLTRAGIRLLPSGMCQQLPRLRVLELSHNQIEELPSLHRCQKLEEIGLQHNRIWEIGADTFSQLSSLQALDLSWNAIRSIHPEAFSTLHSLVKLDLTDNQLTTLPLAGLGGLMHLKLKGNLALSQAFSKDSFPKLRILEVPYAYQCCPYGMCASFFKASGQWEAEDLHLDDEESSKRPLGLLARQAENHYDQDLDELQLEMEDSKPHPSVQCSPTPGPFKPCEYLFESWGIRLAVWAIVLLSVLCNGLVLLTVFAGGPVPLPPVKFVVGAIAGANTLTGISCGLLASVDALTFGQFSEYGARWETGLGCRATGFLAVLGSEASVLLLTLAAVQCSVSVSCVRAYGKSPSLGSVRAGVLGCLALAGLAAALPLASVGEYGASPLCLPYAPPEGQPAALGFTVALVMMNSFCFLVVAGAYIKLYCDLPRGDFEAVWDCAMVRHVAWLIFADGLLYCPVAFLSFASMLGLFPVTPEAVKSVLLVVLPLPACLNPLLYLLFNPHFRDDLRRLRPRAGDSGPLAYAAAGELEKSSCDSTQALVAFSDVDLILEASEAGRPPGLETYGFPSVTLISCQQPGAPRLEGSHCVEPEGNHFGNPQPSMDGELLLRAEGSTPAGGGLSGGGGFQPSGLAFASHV
Nature of the assay: whole-cell fluorescence competition binding, displacement of mRSPO1-Fc (~5 nM) from HEK293 cells expressing FLAG-LGR6. The protocol: as §1
B1: the IC50 was 1.3 nM.
Still for that read-out and setting: the result for B2 reads 0.5 nM; that for B3, 7.7 nM.
On to B4, for which the IC50 is 3.3 nM.
